# Article PMC2873776 (Biochemistry, 2010)
# B1: Tm14C N125C homodimer, spin-labeled (domain or fragment)
# chain: RRIEEVKERFVNLNRLFQELVGDFQAKSDQLVSVIQDMEKISENIMEELKKSGTNVDQIVERVKEASSQIGETLENIRSIEKLIQCIMRIARETNILALNATIEAARAGEAGKGFMIVANEVQNLSNETNEVTKQIVEKAREILESSQRSLENLEFMANLFETVGKTLQNMVRF
# modifications: MTSSL nitroxide spin label on Cys125
# Target: the molecule itself
# Assay: pulsed dipolar ESR spectroscopy
protein,measurement,value
B1,stoichiometry N,2
